Measured values taken from patent publication US11278600B2, “Human alpha-galactosidase variants” (Codexis, Inc., priority 2014, dated 2022).
Substitutions are numbered along the chain they refer to.

Legend:
Assay type in all cases: biochemical
[1] = HTP-analysis of supernatants pretreated with base (MUGal hydrolysis); details: activity of the variant/activity of Rd3BB (SEQ ID NO: 13); challenge at pH 9.7
Method in brief: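 Fluorescence of released 4-MU (Ex 355 nm, Em 448 nm) after carbonate quench reports MUGal hydrolysis by GLA variants secreted from INVSc1 yeast. Before the acidic (pH 4.3-4.8) 30-180 min reaction at 37° C, supernatants had been pre-incubated at pH 7.0-9.7 for 1-18 h at 37° C.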

[2] = HTP-analysis of supernatants pretreated with acid (MUGal hydrolysis); details: activity of the variant/activity of Rd3BB (SEQ ID NO: 13); challenge at pH 3.7
Method in brief: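 GLA variants were secreted from INVSc1 yeast grown 66-84 h at 30° C. in SD-Ura with 2% glucose; supernatants were mixed with McIlvaine buffer pH 3.3-4.3 and held at 37° C. for 1-3 h. Residual activity on MUGal at pH 4.8 was then measured by fluorescence.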

[3] = HTP-analysis of yeast culture supernatants, no challenge (MUGal hydrolysis); details: activity of the variant/activity of Rd3BB (SEQ ID NO: 13)
Method in brief: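 Activity read as 4-methylumbelliferyl α-D-galactopyranoside hydrolysis: fluorescence (355/448 nm) after sodium carbonate stop, following 30-180 min at 37° C with 2 mM MUGal stock at pH 4.6–4.8. Enzyme source is unchallenged culture supernatant of INVSc1 yeast expressing GLA variants, grown 66-84 h at 30° C.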

B1: 555 (protein)
chain: LDNGLARTPTMGWLHWERFMCNLDCQEEPDSCISEKLFMEMAERMVSEGWKDAGYEYLCIDDCWMAPQRDSEGRLQADPQRFPHGIRQLANHVHSKGLKLGIYADVGNKTCAGFPGSFGYYDIDAQTFADWGVDLLKFDGCYCDSLENLADGYKHMSLALNRTGRSIVYSCEWPLYMWPFQKPNYTEIRQYCNHWRNFADIDDSWASIKSILDWTSRNQERIVDVAGPGGWNDPDMLVIGNFGLSWDQQVTQMALWAIMAAPLFMSNDLRHISPQAKALLQDKDVIAINQDPLGKQGYQLRKGDNFEVWERPLSGDAWAVAIINRQEIGGPRSYTIPVASLGKAVACNPACFITQLLPVKRQLGFYNWTSRLKSHINPTGTVLLQLENTMQMSLKDLL
modifications: Synthetic Polypeptide sequence of Variant No. 555 of mature Human GLA
Relative Activity of GLA Variants After Challenge at pH 9.7 [1]: + (+ = 1.5 to 5 relative activity over Rd3BB (SEQ ID NO: 13)) | Relative Activity of GLA Variants After Challenge at pH 3.7 [2]: + (+ = 1.5 to 5 relative activity over Rd3BB (SEQ ID NO: 13)) | Relative Activity of GLA Variants After No Challenge (NC) [3]: + (+ = 1.5 to 5 relative activity over Rd3BB (SEQ ID NO: 13))

B2: 564 (protein)
chain: B1 chain with A344G, W368V
modifications: Synthetic Polypeptide sequence of Variant No. 564 of mature Human GLA
Relative Activity of GLA Variants After Challenge at pH 9.7 [1]: ++ (++ = >5 to 10 relative activity over Rd3BB (SEQ ID NO: 13)) | Relative Activity of GLA Variants After Challenge at pH 3.7 [2]: + (+ = 1.5 to 5 relative activity over Rd3BB (SEQ ID NO: 13)) | Relative Activity of GLA Variants After No Challenge (NC) [3]: + (+ = 1.5 to 5 relative activity over Rd3BB (SEQ ID NO: 13))

B3: 568 (protein)
chain: B1 chain with A344G, N348R
modifications: Synthetic Polypeptide sequence of Variant No. 568 of mature Human GLA
Relative Activity of GLA Variants After Challenge at pH 9.7 [1]: ++ (++ = >5 to 10 relative activity over Rd3BB (SEQ ID NO: 13)) | Relative Activity of GLA Variants After Challenge at pH 3.7 [2]: + (+ = 1.5 to 5 relative activity over Rd3BB (SEQ ID NO: 13)) | Relative Activity of GLA Variants After No Challenge (NC) [3]: + (+ = 1.5 to 5 relative activity over Rd3BB (SEQ ID NO: 13))

B4: 565 (protein)
chain: B1 chain with A344G, N348E
modifications: Synthetic Polypeptide sequence of Variant No. 565 of mature Human GLA
Relative Activity of GLA Variants After Challenge at pH 9.7 [1]: ++ (++ = >5 to 10 relative activity over Rd3BB (SEQ ID NO: 13)) | Relative Activity of GLA Variants After Challenge at pH 3.7 [2]: + (+ = 1.5 to 5 relative activity over Rd3BB (SEQ ID NO: 13)) | Relative Activity of GLA Variants After No Challenge (NC) [3]: + (+ = 1.5 to 5 relative activity over Rd3BB (SEQ ID NO: 13))

B5: 557 (protein)
chain: B1 chain with A344S
modifications: Synthetic Polypeptide sequence of Variant No. 557 of mature Human GLA
Relative Activity of GLA Variants After Challenge at pH 9.7 [1]: ++ (++ = >5 to 10 relative activity over Rd3BB (SEQ ID NO: 13)) | Relative Activity of GLA Variants After Challenge at pH 3.7 [2]: + (+ = 1.5 to 5 relative activity over Rd3BB (SEQ ID NO: 13)) | Relative Activity of GLA Variants After No Challenge (NC) [3]: + (+ = 1.5 to 5 relative activity over Rd3BB (SEQ ID NO: 13))

B6: 561 (protein)
chain: B1 chain with A344G, W368L
modifications: Synthetic Polypeptide sequence of Variant No. 561 of mature Human GLA
Relative Activity of GLA Variants After Challenge at pH 9.7 [1]: ++ (++ = >5 to 10 relative activity over Rd3BB (SEQ ID NO: 13)) | Relative Activity of GLA Variants After Challenge at pH 3.7 [2]: + (+ = 1.5 to 5 relative activity over Rd3BB (SEQ ID NO: 13)) | Relative Activity of GLA Variants After No Challenge (NC) [3]: + (+ = 1.5 to 5 relative activity over Rd3BB (SEQ ID NO: 13))

B7: 559 (protein)
chain: B1 chain with A344G, L372W
modifications: Synthetic Polypeptide sequence of Variant No. 559 of mature Human GLA
Relative Activity of GLA Variants After Challenge at pH 9.7 [1]: ++ (++ = >5 to 10 relative activity over Rd3BB (SEQ ID NO: 13)) | Relative Activity of GLA Variants After Challenge at pH 3.7 [2]: + (+ = 1.5 to 5 relative activity over Rd3BB (SEQ ID NO: 13)) | Relative Activity of GLA Variants After No Challenge (NC) [3]: + (+ = 1.5 to 5 relative activity over Rd3BB (SEQ ID NO: 13))

B8: 556 (protein)
chain: B1 chain with A344D
modifications: Synthetic Polypeptide sequence of Variant No. 556 of mature Human GLA
Relative Activity of GLA Variants After Challenge at pH 9.7 [1]: + (+ = 1.5 to 5 relative activity over Rd3BB (SEQ ID NO: 13)) | Relative Activity of GLA Variants After Challenge at pH 3.7 [2]: − (− = <1.5 relative activity to Rd3BB (SEQ ID NO: 13)) | Relative Activity of GLA Variants After No Challenge (NC) [3]: − (− = <1.5 relative activity to Rd3BB (SEQ ID NO: 13))

B9: 558 (protein)
chain: B1 chain with A344G, I353L
modifications: Synthetic Polypeptide sequence of Variant No. 558 of mature Human GLA
Relative Activity of GLA Variants After Challenge at pH 9.7 [1]: + (+ = 1.5 to 5 relative activity over Rd3BB (SEQ ID NO: 13)) | Relative Activity of GLA Variants After Challenge at pH 3.7 [2]: − (− = <1.5 relative activity to Rd3BB (SEQ ID NO: 13)) | Relative Activity of GLA Variants After No Challenge (NC) [3]: − (− = <1.5 relative activity to Rd3BB (SEQ ID NO: 13))

B10: 562 (protein)
chain: B1 chain with A344G, W368N
modifications: Synthetic Polypeptide sequence of Variant No. 562 of mature Human GLA
Relative Activity of GLA Variants After Challenge at pH 9.7 [1]: ++ (++ = >5 to 10 relative activity over Rd3BB (SEQ ID NO: 13)) | Relative Activity of GLA Variants After Challenge at pH 3.7 [2]: + (+ = 1.5 to 5 relative activity over Rd3BB (SEQ ID NO: 13)) | Relative Activity of GLA Variants After No Challenge (NC) [3]: + (+ = 1.5 to 5 relative activity over Rd3BB (SEQ ID NO: 13))

B11: 567 (protein)
chain: B1 chain with A344G, N348Q
modifications: Synthetic Polypeptide sequence of Variant No. 567 of mature Human GLA
Relative Activity of GLA Variants After Challenge at pH 9.7 [1]: ++ (++ = >5 to 10 relative activity over Rd3BB (SEQ ID NO: 13)) | Relative Activity of GLA Variants After Challenge at pH 3.7 [2]: + (+ = 1.5 to 5 relative activity over Rd3BB (SEQ ID NO: 13)) | Relative Activity of GLA Variants After No Challenge (NC) [3]: + (+ = 1.5 to 5 relative activity over Rd3BB (SEQ ID NO: 13))

B12: 563 (protein)
chain: B1 chain with A344G, W368R
modifications: Synthetic Polypeptide sequence of Variant No. 563 of mature Human GLA
Relative Activity of GLA Variants After Challenge at pH 9.7 [1]: ++ (++ = >5 to 10 relative activity over Rd3BB (SEQ ID NO: 13)) | Relative Activity of GLA Variants After Challenge at pH 3.7 [2]: + (+ = 1.5 to 5 relative activity over Rd3BB (SEQ ID NO: 13)) | Relative Activity of GLA Variants After No Challenge (NC) [3]: + (+ = 1.5 to 5 relative activity over Rd3BB (SEQ ID NO: 13))

B13: 566 (protein)
chain: B1 chain with A344G, N348M
modifications: Synthetic Polypeptide sequence of Variant No. 566 of mature Human GLA
Relative Activity of GLA Variants After Challenge at pH 9.7 [1]: ++ (++ = >5 to 10 relative activity over Rd3BB (SEQ ID NO: 13)) | Relative Activity of GLA Variants After Challenge at pH 3.7 [2]: + (+ = 1.5 to 5 relative activity over Rd3BB (SEQ ID NO: 13)) | Relative Activity of GLA Variants After No Challenge (NC) [3]: + (+ = 1.5 to 5 relative activity over Rd3BB (SEQ ID NO: 13))

B14: 569 (protein)
chain: B1 chain with A344G, N348W
modifications: Synthetic Polypeptide sequence of Variant No. 569 of mature Human GLA
Relative Activity of GLA Variants After Challenge at pH 9.7 [1]: ++ (++ = >5 to 10 relative activity over Rd3BB (SEQ ID NO: 13)) | Relative Activity of GLA Variants After Challenge at pH 3.7 [2]: + (+ = 1.5 to 5 relative activity over Rd3BB (SEQ ID NO: 13)) | Relative Activity of GLA Variants After No Challenge (NC) [3]: + (+ = 1.5 to 5 relative activity over Rd3BB (SEQ ID NO: 13))

B15: 570 (protein)
chain: B1 chain with A344G, T354S
modifications: Synthetic Polypeptide sequence of Variant No. 570 of mature Human GLA
Relative Activity of GLA Variants After Challenge at pH 9.7 [1]: ++ (++ = >5 to 10 relative activity over Rd3BB (SEQ ID NO: 13)) | Relative Activity of GLA Variants After Challenge at pH 3.7 [2]: + (+ = 1.5 to 5 relative activity over Rd3BB (SEQ ID NO: 13)) | Relative Activity of GLA Variants After No Challenge (NC) [3]: + (+ = 1.5 to 5 relative activity over Rd3BB (SEQ ID NO: 13))

B16: 560 (protein)
chain: B1 chain with A344G, W368A
modifications: Synthetic Polypeptide sequence of Variant No. 560 of mature Human GLA
Relative Activity of GLA Variants After Challenge at pH 9.7 [1]: ++ (++ = >5 to 10 relative activity over Rd3BB (SEQ ID NO: 13)) | Relative Activity of GLA Variants After Challenge at pH 3.7 [2]: ++ (++ = >5 to 10 relative activity over Rd3BB (SEQ ID NO: 13)) | Relative Activity of GLA Variants After No Challenge (NC) [3]: + (+ = 1.5 to 5 relative activity over Rd3BB (SEQ ID NO: 13))
